Holding throughout (settings): both partners purified
One test concerns the target T1, Rb^P T638S (human, UniProt P06400 380-788, T638S).
T1 construct: also called variant 45
T1 sequence (looked up): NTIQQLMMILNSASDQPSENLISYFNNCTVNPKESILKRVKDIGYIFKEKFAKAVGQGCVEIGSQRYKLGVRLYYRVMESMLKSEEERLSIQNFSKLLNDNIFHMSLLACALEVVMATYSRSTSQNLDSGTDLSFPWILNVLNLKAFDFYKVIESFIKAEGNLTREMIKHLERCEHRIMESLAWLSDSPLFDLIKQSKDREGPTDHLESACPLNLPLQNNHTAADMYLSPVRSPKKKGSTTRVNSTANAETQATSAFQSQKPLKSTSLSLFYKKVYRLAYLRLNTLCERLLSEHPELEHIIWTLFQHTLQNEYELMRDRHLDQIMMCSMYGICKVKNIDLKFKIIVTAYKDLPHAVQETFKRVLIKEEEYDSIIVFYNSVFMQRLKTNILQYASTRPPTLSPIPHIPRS
The test can be described thus: fluorescence polarisation; 25 °C; unlabeled Rb^P titrated against 1.5 nM TMR-E2F1^TD or 7.5 nM TMR-E7^LxCxE; 25 mM Tris pH 8.0, 200 mM NaCl, 1 mM DTT, 0.1% Tween-20; 2 min incubation; quadratic fit; apparent Kd for the variants, Kd for WT. (In general: In fluorescence polarisation assays a small probe gives low polarisation when free and higher when bound to something large.)

Test [1] addresses T2, retinoblastoma protein pocket domain (Rb^P), wild type (human, UniProt P06400 380-788).
T2 construct: also called WT Rb^P; WT
T2 sequence (looked up): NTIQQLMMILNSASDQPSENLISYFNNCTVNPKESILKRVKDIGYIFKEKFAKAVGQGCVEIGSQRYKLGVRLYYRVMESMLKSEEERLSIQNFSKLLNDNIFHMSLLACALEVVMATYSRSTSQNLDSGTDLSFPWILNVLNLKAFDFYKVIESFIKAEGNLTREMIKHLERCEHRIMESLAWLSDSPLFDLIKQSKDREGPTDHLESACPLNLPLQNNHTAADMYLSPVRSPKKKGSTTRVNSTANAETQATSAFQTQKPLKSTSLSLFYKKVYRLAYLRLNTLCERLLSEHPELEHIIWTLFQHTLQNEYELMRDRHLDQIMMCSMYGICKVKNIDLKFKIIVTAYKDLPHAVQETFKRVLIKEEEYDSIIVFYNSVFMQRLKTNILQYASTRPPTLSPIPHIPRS
The test can be described thus: fluorescence polarisation; 25 °C after warming to 37 °C (7 min ramp, 2 min at 37 °C), 1 min on ice and 3 min at 25 °C; unlabeled Rb^P against 1.5 nM TMR-E2F1^TD or 7.5 nM TMR-E7^LxCxE; 25 mM Tris pH 8.0, 200 mM NaCl, 1 mM DTT, 0.1% Tween-20; apparent Kd.

For the next test, the target named is T3, Rb^P E554K (human, UniProt P06400 380-788, E554K).
T3 construct: also called variant 28
T3 sequence (looked up): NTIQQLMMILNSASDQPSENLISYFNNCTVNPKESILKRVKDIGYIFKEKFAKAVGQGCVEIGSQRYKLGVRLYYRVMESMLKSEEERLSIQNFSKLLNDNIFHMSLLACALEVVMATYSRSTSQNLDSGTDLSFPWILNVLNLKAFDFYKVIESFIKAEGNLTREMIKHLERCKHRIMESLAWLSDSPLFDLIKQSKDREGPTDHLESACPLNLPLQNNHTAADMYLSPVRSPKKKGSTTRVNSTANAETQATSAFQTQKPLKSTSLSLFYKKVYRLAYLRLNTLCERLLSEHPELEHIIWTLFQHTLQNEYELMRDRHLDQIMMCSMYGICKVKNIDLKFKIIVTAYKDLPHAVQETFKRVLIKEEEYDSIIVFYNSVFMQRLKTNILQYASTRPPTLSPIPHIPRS
Described as above.

A further test concerns the target T4, Rb^P M704V (human, UniProt P06400 380-788, M704V).
T4 construct: also called variant 66
T4 sequence (looked up): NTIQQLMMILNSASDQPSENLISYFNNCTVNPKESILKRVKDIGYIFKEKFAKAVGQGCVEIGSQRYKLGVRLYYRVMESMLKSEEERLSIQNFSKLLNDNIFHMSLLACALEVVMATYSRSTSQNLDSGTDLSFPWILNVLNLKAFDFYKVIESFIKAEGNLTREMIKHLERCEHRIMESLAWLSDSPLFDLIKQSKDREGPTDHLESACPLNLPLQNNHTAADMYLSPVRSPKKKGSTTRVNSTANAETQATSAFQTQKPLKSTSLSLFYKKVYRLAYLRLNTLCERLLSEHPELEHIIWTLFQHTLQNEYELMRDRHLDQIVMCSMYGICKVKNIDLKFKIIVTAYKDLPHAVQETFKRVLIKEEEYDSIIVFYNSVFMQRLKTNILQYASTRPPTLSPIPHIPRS
The test is described as above.

Another test has as its target T5, Rb^P S751Y (human, UniProt P06400 380-788, S751Y).
T5 construct: also called variant 72
T5 sequence (looked up): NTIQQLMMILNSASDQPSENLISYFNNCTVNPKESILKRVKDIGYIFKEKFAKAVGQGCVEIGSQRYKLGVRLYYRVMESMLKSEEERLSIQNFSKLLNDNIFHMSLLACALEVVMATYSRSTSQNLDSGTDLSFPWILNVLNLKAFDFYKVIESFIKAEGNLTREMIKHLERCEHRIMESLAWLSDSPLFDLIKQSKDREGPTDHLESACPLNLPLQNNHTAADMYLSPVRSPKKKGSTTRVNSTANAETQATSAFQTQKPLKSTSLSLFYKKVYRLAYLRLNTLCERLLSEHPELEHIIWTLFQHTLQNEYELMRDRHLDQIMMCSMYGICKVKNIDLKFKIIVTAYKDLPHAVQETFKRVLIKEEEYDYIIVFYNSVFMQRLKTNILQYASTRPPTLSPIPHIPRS
Described as above.

No end group written: not given here. TMR = tetramethyl rhodamine dye

B1: TMR-E2F1^TD, peptide of the E2F1 transactivation domain (peptide)
peptide: {TMR}-GEGIRDLFDCDFGDLTPLD
notes: also called E2F^TD; source: synthetic peptide, bought: GenScript
Regarding B1, the Kd in the test with Rb^P T638S was 14 nM; in test [1], 17 nM; in the test with Rb^P E554K, 1740 nM; with Rb^P M704V it was 46 nM; with Rb^P S751Y, 28 nM.

B2: TMR-E7^LxCxE, LxCxE peptide of the E7 oncoprotein from HPV (peptide)
peptide: DLYCYEQLN
modifications: also: TMR label, position not given here
notes: source: synthetic peptide, bought: GenScript
On to B2, for which the Kd was determined as 7 nM with Rb^P T638S; 7 nM in test [1]; 24 nM with Rb^P E554K; 14 nM with Rb^P M704V; 119 nM in the test with Rb^P S751Y.

The values are drawn from paper PMC11931385, “Structural and functional analysis of cancer-associated missense variants in the retinoblastoma protein pocket domain” (The Journal of Biological Chemistry, 2025).
